Data set [1] deals with Wt26 (DNA, G4) TTAGGGTTAGGGTTAGGGTTAGGGTT
The data set is described as follows: EMSA, inhibition of hPOT1 binding. The note with it: 100 mM NaCl; 50 mM HEPES pH 7.9, room temperature; 30 nM hPOT1 displaced; 20 nM DNA; indirect. In general terms: Mobility shift assays separate free from complexed probe on a gel.

Data set [2] has the same test system. In words: EMSA, inhibition of Topo IIIα binding. As to conditions: 100 mM NaCl; 50 mM HEPES pH 7.9, room temperature; 50 nM Topo IIIα displaced; 20 nM DNA; indirect.
Data set [3] has as its system 21G (DNA, G4) GGGTTAGGGTTAGGGTTAGGG
The data set is described as follows: EMSA, inhibition of Topo IIIα binding. As to conditions: 100 mM NaCl; 50 mM HEPES pH 7.9, room temperature; 50 nM Topo IIIα displaced; 20 nM DNA; indirect.

Data set [4] relates to 21Gmu (21G mu3) (DNA, single strand) GGCTTACGGTTAGCGTTAGGG
The data set is described as follows: EMSA, inhibition of Topo IIIα binding. As to conditions: 100 mM NaCl; 50 mM HEPES pH 7.9, room temperature; 50 nM Topo IIIα displaced; 20 nM DNA; indirect.

For data set [5], the system named is S310 (DNA, single strand) CCAGCTCTGCTTTGCATCTTT
In words: EMSA, inhibition of Topo IIIα binding. The note with it: 100 mM NaCl; 50 mM HEPES pH 7.9, room temperature; 50 nM Topo IIIα; 20 nM DNA; up to 10 µM telomestatin; indirect.

The target of data set [6] is T1, Topoisomerase IIIα (Topo III) (human, UniProt Q13472 1-1001).
T1 sequence: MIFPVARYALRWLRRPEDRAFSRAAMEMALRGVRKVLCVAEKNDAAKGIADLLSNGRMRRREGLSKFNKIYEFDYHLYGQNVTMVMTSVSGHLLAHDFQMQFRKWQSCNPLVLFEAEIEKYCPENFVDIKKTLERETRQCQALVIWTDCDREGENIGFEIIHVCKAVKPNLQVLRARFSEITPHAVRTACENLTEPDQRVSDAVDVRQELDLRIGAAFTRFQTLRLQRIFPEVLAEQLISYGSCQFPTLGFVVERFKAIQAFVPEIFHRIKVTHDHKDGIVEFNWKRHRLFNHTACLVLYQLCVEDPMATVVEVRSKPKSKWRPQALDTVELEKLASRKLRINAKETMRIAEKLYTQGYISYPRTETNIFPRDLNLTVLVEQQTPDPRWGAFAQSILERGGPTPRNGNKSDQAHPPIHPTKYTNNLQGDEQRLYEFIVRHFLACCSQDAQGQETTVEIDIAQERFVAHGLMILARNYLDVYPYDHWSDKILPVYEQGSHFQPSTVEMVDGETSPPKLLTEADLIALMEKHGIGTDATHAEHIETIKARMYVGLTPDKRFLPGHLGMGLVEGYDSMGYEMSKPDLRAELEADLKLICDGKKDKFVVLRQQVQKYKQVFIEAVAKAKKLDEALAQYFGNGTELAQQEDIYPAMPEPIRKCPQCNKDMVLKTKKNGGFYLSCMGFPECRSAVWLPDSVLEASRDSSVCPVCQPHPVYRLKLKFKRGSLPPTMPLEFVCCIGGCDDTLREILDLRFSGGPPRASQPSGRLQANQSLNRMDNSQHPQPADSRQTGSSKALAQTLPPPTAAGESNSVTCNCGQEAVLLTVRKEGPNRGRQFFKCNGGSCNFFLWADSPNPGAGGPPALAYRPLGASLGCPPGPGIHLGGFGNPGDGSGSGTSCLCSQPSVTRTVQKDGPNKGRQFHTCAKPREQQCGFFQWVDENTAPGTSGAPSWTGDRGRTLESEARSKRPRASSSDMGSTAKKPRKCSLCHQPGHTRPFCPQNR
The data set is described as follows: EMSA; no telomestatin; 50 mM HEPES pH 7.9, 100 mM NaCl, 0.1 mM EDTA, 4% sucrose, 2% glycerol, 0.1 mg/mL BSA, 0.02% bromophenol blue, 20 nM probe, room temperature 30 min; 1% agarose. As to conditions: protein: recombinant.

Data set [7] concerns the target T2, hPOT1 (human, UniProt Q9NUX5 1-634).
T2 sequence: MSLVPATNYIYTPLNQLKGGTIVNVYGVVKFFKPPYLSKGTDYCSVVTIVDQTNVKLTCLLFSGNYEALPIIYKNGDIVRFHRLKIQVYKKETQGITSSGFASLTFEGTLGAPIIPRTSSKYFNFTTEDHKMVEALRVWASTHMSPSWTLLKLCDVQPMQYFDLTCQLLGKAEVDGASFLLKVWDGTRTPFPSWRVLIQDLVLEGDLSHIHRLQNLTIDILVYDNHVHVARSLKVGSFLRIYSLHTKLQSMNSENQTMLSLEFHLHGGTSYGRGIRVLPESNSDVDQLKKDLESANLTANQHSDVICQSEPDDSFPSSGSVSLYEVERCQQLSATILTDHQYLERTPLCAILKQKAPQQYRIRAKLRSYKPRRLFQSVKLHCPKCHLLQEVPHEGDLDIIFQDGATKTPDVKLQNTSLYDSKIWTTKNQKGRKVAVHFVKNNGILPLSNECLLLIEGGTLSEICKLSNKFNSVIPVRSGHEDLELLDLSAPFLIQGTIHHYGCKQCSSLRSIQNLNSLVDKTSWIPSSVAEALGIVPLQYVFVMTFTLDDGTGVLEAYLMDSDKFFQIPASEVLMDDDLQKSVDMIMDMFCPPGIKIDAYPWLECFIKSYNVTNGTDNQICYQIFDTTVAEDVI
In words: EMSA; no telomestatin; POT1 30 nM, probe 20 nM; 50 mM HEPES pH 7.9, 100 mM NaCl, 0.1 mM EDTA, 4% sucrose, 2% glycerol, 0.1 mg/mL BSA, 0.02% bromophenol blue, 20 nM probe, room temperature 30 min; 1% agarose. As to conditions: protein: recombinant; label: 32P; G4-forming.

In data set [8] the target is T1, Topoisomerase IIIα (Topo III). In words: competition; unlabelled competitor vs 32P-24C (20 nM), Topo III 50 nM; 50 mM HEPES pH 7.9, 100 mM NaCl, 0.1 mM EDTA, 4% sucrose, 2% glycerol, 0.1 mg/mL BSA, 0.02% bromophenol blue, 20 nM probe, room temperature 30 min; 1% agarose. The note with it: protein: recombinant; G4-forming.
The target is the same in data set [9]. The data set is described as follows: EMSA; no ligand; probe 20 nM, Topo III 50 nM; 50 mM HEPES pH 7.9, 100 mM NaCl, 0.1 mM EDTA, 4% sucrose, 2% glycerol, 0.1 mg/mL BSA, 0.02% bromophenol blue, 20 nM probe, room temperature 30 min; 1% agarose. The note with it: protein: recombinant; label: 32P; single strand.
The target is the same in data set [10]. The data set is described as follows: competition; unlabelled competitor vs 32P-24C; more potent than Pu22myc; non-G4 IC50s 4.3-10.1-fold lower than G4 oligos overall; 50 mM HEPES pH 7.9, 100 mM NaCl, 0.1 mM EDTA, 4% sucrose, 2% glycerol, 0.1 mg/mL BSA, 0.02% bromophenol blue, 20 nM probe, room temperature 30 min; 1% agarose. The note with it: protein: recombinant; single strand, cannot form G4.

One may read the IC50 as the midpoint of a concentration-inhibition curve. In the case of `Cc1oc2nc1-c1nc(co1)-c1nc(co1)-c1nc(co1)-c1nc(co1)-c1nc(co1)C1=NC(CS1)c1nc-2c(C)o1` (stereo not shown), the IC50 in data set [1] is 100 nM; in [2] it was 60 nM; in [3], 300 nM; in [4], above 10000 nM. The binding entry in [5] was “no”. Consider TTAGGGTTAGGGTTAGGGTTAGGGTT (structured_DNA) [Wt26], for which the binding result in data set [6] (label: 32P, G4-forming) was “binds”; in data set [7] it was “binds”.

Turning to GGGTTAGGGTTAGGGTTAGGG (structured_DNA) [21G], the binding result in data set [6] (label: 32P when used as probe, G4-forming) is “binds”. As for CCAGCTCTGCTTTGCATCTTT (ssDNA) [S310], the binding result in [6] (label: 32P) was “binds”.

Turning to GGCTTACGGTTAGCGTTAGGG (ssDNA) [21G mu3 (21Gmu)], the binding result in [6] (label: 32P when used as probe, single strand, cannot form G4) is on record as “binds”.

Take GAGGGTGGGGAGGGTGGGGAAG (structured_DNA) [Pu22myc]: in data set [8], the binding signal was ~3 fold higher concentration than Pu22mu needed to inhibit binding. Consider CCCTAACCCTAACCCTAACCCTAA (ssDNA) [24C], for which the binding result in data set [9] was “binds”. As for GAGGGTGAAGAGGGTGGGGAAG (ssDNA) [Pu22mu], the binding result in data set [10] is reported as “binds”.

These data come from article PMC2732903.
